This assay deals with PEX5, P50542-3.

For “Serine-protein kinase ATM (Homo sapiens), Q13315 R3047Q”, the “effect of a mutation on the interaction” value is recorded as “decreasing interaction strength”.

These data come from IntAct's records for PubMed 26344566.
